According to patent US20250197488A1 (MABWELL SHANGHAI BIOSCIENCE, published 2025):

T1: IL-11 (Cat. 12225-HNCE, Sino Biological Inc.) (UniProt P20809 22-199, limits assumed)
T1 sequence (looked up): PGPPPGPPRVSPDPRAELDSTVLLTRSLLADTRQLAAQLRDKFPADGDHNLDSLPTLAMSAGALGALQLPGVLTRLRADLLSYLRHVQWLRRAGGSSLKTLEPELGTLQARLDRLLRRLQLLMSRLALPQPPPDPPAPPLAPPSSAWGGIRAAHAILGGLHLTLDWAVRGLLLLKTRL

T2: human IL-11 (AAH12506.1, Pro22-Leu199) (human, UniProt P20809 22-199)
T2 construct: The range Pro22-Leu199 counts on AAH12506.1; The Octet runs say only 'human IL-11'; also called hIL-11
T2 chain: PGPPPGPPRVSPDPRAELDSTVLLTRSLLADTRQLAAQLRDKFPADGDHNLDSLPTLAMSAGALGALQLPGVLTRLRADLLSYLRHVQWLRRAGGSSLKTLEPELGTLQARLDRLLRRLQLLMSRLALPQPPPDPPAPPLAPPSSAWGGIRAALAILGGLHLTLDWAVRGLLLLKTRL


Columns and labels:
[1] = target: T1, IL-11 (Cat. 12225-HNCE, Sino Biological …); assay: cell-based or functional assay
[2] = target: T2, human IL-11 (AAH12506.1, Pro22-Leu199); assay: BLI (Octet), antibody captured, human IL-11 in solution
Method in brief: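 Bio-layer interferometry on a Fortebio Octet QKe System. Antibodies (hybridoma supernatant or purified, diluted in HBS-EP+ buffer) were captured on anti-mouse IgG Fc (AMC) or anti-human Fc (AHC) biosensors. Human IL-11 at 300 nM in HBS-EP+ buffer flowed over, with 300 seconds association and 300 seconds dissociation. Blank-subtracted curves were fitted to a 1:1 Langmuir binding model to derive kon, koff and Kd.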

Row | Blocking activity (IC50), STAT3-luc reporter [1] | Kd [2] | koff [2] | kon [2] | Binder
1 | 11.6 mg/L | 1.15 nM | 0.000732 s⁻¹ | 639000 M⁻¹ s⁻¹ | hz18A10-VHm5 + hz18A10-VLm9 (antibody, V domains shown, Constant regions not restated for this antibody) VH: EVQLVQSGAEVKKPGASVKVSCKASGYTFITYNMDWVRQAPGQGLEWMGTIYPGNGDTSYNQKFKGRVTMTRDTSTSTAYMELSSLRSEDTAVYYCARADLHFLDYWGQGTLVTVSS VL: DIQMTQSPSSLSASVGDRVTITCKASQSVYSDVAWYQQKPGKAPKLLIYSASNRYTGVPSRFSGSGSGTDFTFTISSLQPEDIATYYCQHDYSSPYTFGQGTKLEIK
2 | 8.64 mg/L | 1.44 nM | 0.0011 s⁻¹ | 760000 M⁻¹ s⁻¹ | hz18A10-VHm8 + hz18A10-VLm19 (antibody, V domains shown, Constant regions not restated for this antibody) VH: EVQLVQSGAEVKKPGASVKVSCKASGYTFTTYDMHWVRQAPGQGLEWMGTIYPGNGDTSYNQKFKGRVTMTRDTSTSTVYMELSSLRSEDTAVYYCARGDLYALDYWGQGTLVTVSS VL: DIQMTQSPSSLSASVGDRVTITCKASQSVYRDVAWYQQKPGKAPKLLIYSASNRYTGVPSRFSGSGSGTDFTFTISSLQPEDIATYYCQHDYSSPYTFGQGTKLEIK
3 | 0.99 mg/L | 0.538 nM | 0.000448 s⁻¹ | 833000 M⁻¹ s⁻¹ | hz18A10-VHm9 + hz18A10-VLm19 (antibody, V domains shown, Constant regions not restated for this antibody) VH: EVQLVQSGAEVKKPGASVKVSCKASGYTFTTYDMSWVRQAPGQGLEWMGTIYPGNGDTSYNQKFKGRVTMTRDTSTSTVYMELSSLRSEDTAVYYCARGDLYALDYWGQGTLVTVSS VL: DIQMTQSPSSLSASVGDRVTITCKASQSVYRDVAWYQQKPGKAPKLLIYSASNRYTGVPSRFSGSGSGTDFTFTISSLQPEDIATYYCQHDYSSPYTFGQGTKLEIK
4 | 0.338 mg/L | 0.203 nM | 0.000148 s⁻¹ | 729000 M⁻¹ s⁻¹ | hz18A10-VHm13 + hz18A10-VLm19 (antibody, V domains shown, Constant regions not restated for this antibody) VH: EVQLVQSGAEVKKPGASVKVSCKASGYTFTHYEMDWVRQAPGQGLEWMGTIYPGNGDTSYNQKFKGRVTMTRDTSTSTVYMELSSLRSEDTAVYYCARGDLYALDYWGQGTLVTVSS VL: DIQMTQSPSSLSASVGDRVTITCKASQSVYRDVAWYQQKPGKAPKLLIYSASNRYTGVPSRFSGSGSGTDFTFTISSLQPEDIATYYCQHDYSSPYTFGQGTKLEIK
5 | 0.034 mg/L | 0.0956 nM | 0.00012 s⁻¹ | 1.26e+06 M⁻¹ s⁻¹ | hz18A10-VHm16 + hz18A10-VLm19 (antibody, V domains shown, Constant regions not restated for this antibody) VH: EVQLVQSGAEVKKPGASVKVSCKASGYTFTHYDMDWVRQAPGQGLEWMGTIYPGNADTSYNQKFKGRVTMTRDTSTSTVYMELSSLRSEDTAVYYCARGDLYALDYWGQGTLVTVSS VL: DIQMTQSPSSLSASVGDRVTITCKASQSVYRDVAWYQQKPGKAPKLLIYSASNRYTGVPSRFSGSGSGTDFTFTISSLQPEDIATYYCQHDYSSPYTFGQGTKLEIK
6 | 0.013 mg/L | 0.00708 nM | 8.23e-06 s⁻¹ | 1.16e+06 M⁻¹ s⁻¹ | hz18A10-VHm17 + hz18A10-VLm19 (antibody, V domains shown, Constant regions not restated for this antibody) VH: EVQLVQSGAEVKKPGASVKVSCKASGYTFTHYDMDWVRQAPGQGLEWMGTIYPGEGDTSYNQKFKGRVTMTRDTSTSTVYMELSSLRSEDTAVYYCARGDLYALDYWGQGTLVTVSS VL: DIQMTQSPSSLSASVGDRVTITCKASQSVYRDVAWYQQKPGKAPKLLIYSASNRYTGVPSRFSGSGSGTDFTFTISSLQPEDIATYYCQHDYSSPYTFGQGTKLEIK
7 | 1.22 mg/L | 0.105 nM | 0.000113 s⁻¹ | 1.08e+06 M⁻¹ s⁻¹ | hz18A10-VHm7 + hz18A10-VLm19 (antibody, V domains shown, Constant regions not restated for this antibody) VH: EVQLVQSGAEVKKPGASVKVSCKASGYTFTTYDIDWVRQAPGQGLEWMGTIYPGNGDTSYNQKFKGRVTMTRDTSTSTVYMELSSLRSEDTAVYYCARGDLYALDYWGQGTLVTVSS VL: DIQMTQSPSSLSASVGDRVTITCKASQSVYRDVAWYQQKPGKAPKLLIYSASNRYTGVPSRFSGSGSGTDFTFTISSLQPEDIATYYCQHDYSSPYTFGQGTKLEIK
8 | 0.017 mg/L | 0.213 nM | 0.000194 s⁻¹ | 911000 M⁻¹ s⁻¹ | hz18A10-VHm6 + hz18A10-VLm19 (antibody, V domains shown, Constant regions not restated for this antibody) VH: EVQLVQSGAEVKKPGASVKVSCKASGYTFNHYDMDWVRQAPGQGLEWMGTIYPGNGDTSYNQKFKGRVTMTRDTSTSTVYMELSSLRSEDTAVYYCARGDLYALDYWGQGTLVTVSS VL: DIQMTQSPSSLSASVGDRVTITCKASQSVYRDVAWYQQKPGKAPKLLIYSASNRYTGVPSRFSGSGSGTDFTFTISSLQPEDIATYYCQHDYSSPYTFGQGTKLEIK
9 | 0.061 mg/L | 0.22 nM | 0.000227 s⁻¹ | 1.03e+06 M⁻¹ s⁻¹ | hz18A10-VHm20 + hz18A10-VLm19 (antibody, V domains shown, Constant regions not restated for this antibody) VH: EVQLVQSGAEVKKPGASVKVSCKASGYTFTHYNMDWVRQAPGQGLEWMGTIYPGQGDTSYNQKFKGRVTMTRDTSTSTVYMELSSLRSEDTAVYYCARGDLYALDYWGQGTLVTVSS VL: DIQMTQSPSSLSASVGDRVTITCKASQSVYRDVAWYQQKPGKAPKLLIYSASNRYTGVPSRFSGSGSGTDFTFTISSLQPEDIATYYCQHDYSSPYTFGQGTKLEIK
10 | 0.011 mg/L | 0.185 nM | 0.000173 s⁻¹ | 934000 M⁻¹ s⁻¹ | hz18A10-VHm12 + hz18A10-VLm19 (antibody, V domains shown, Constant regions not restated for this antibody) VH: EVQLVQSGAEVKKPGASVKVSCKASGYTFTHYDMDWVRQAPGQGLEWMGTIYPGNGDTSYNQKFKGRVTMTRDTSTSTVYMELSSLRSEDTAVYYCARGDLYALDYWGQGTLVTVSS VL: DIQMTQSPSSLSASVGDRVTITCKASQSVYRDVAWYQQKPGKAPKLLIYSASNRYTGVPSRFSGSGSGTDFTFTISSLQPEDIATYYCQHDYSSPYTFGQGTKLEIK
11 | 0.034 mg/L | 0.00718 nM | 7.17e-06 s⁻¹ | 999000 M⁻¹ s⁻¹ | hz18A10-VHm6 + hz18A10-VLm9 (antibody, V domains shown, Constant regions not restated for this antibody) VH: EVQLVQSGAEVKKPGASVKVSCKASGYTFNHYDMDWVRQAPGQGLEWMGTIYPGNGDTSYNQKFKGRVTMTRDTSTSTVYMELSSLRSEDTAVYYCARGDLYALDYWGQGTLVTVSS VL: DIQMTQSPSSLSASVGDRVTITCKASQSVYSDVAWYQQKPGKAPKLLIYSASNRYTGVPSRFSGSGSGTDFTFTISSLQPEDIATYYCQHDYSSPYTFGQGTKLEIK
12 | 0.136 mg/L | 0.235 nM | 0.000216 s⁻¹ | 917000 M⁻¹ s⁻¹ | hz18A10-VHm10 + hz18A10-VLm19 (antibody, V domains shown, Constant regions not restated for this antibody) VH: EVQLVQSGAEVKKPGASVKVSCKASGYTFNHYNMDWVRQAPGQGLEWMGTIYPGNGDTSYNQKFKGRVTMTRDTSTSTVYMELSSLRSEDTAVYYCARGDLYALDYWGQGTLVTVSS VL: DIQMTQSPSSLSASVGDRVTITCKASQSVYRDVAWYQQKPGKAPKLLIYSASNRYTGVPSRFSGSGSGTDFTFTISSLQPEDIATYYCQHDYSSPYTFGQGTKLEIK
13 | 0.112 mg/L | 0.138 nM | 0.000119 s⁻¹ | 862000 M⁻¹ s⁻¹ | hz18A10-VHm11 + hz18A10-VLm19 (antibody, V domains shown, Constant regions not restated for this antibody) VH: EVQLVQSGAEVKKPGASVKVSCKASGYTFTHYNMDWVRQAPGQGLEWMGTIYPGNGDTSYNQKFKGRVTMTRDTSTSTVYMELSSLRSEDTAVYYCARGDLYALDYWGQGTLVTVSS VL: DIQMTQSPSSLSASVGDRVTITCKASQSVYRDVAWYQQKPGKAPKLLIYSASNRYTGVPSRFSGSGSGTDFTFTISSLQPEDIATYYCQHDYSSPYTFGQGTKLEIK
14 | 0.511 mg/L | 0.346 nM | 0.000263 s⁻¹ | 760000 M⁻¹ s⁻¹ | hz18A10-VHm15 + hz18A10-VLm19 (antibody, V domains shown, Constant regions not restated for this antibody) VH: EVQLVQSGAEVKKPGASVKVSCKASGYTFTHYSMDWVRQAPGQGLEWMGTIYPGNGDTSYNQKFKGRVTMTRDTSTSTVYMELSSLRSEDTAVYYCARGDLYALDYWGQGTLVTVSS VL: DIQMTQSPSSLSASVGDRVTITCKASQSVYRDVAWYQQKPGKAPKLLIYSASNRYTGVPSRFSGSGSGTDFTFTISSLQPEDIATYYCQHDYSSPYTFGQGTKLEIK
15 | 0.79 mg/L | 0.313 nM | 0.000354 s⁻¹ | 1.13e+06 M⁻¹ s⁻¹ | hz18A10-VHm18 + hz18A10-VLm19 (antibody, V domains shown, Constant regions not restated for this antibody) VH: EVQLVQSGAEVKKPGASVKVSCKASGYTFTHYNMDWVRQAPGQGLEWMGTIYPGEGDTSYNQKFKGRVTMTRDTSTSTVYMELSSLRSEDTAVYYCARGDLYALDYWGQGTLVTVSS VL: DIQMTQSPSSLSASVGDRVTITCKASQSVYRDVAWYQQKPGKAPKLLIYSASNRYTGVPSRFSGSGSGTDFTFTISSLQPEDIATYYCQHDYSSPYTFGQGTKLEIK
16 | 1.03 mg/L | 0.678 nM | 0.000485 s⁻¹ | 716000 M⁻¹ s⁻¹ | hz18A10-VHm14 + hz18A10-VLm19 (antibody, V domains shown, Constant regions not restated for this antibody) VH: EVQLVQSGAEVKKPGASVKVSCKASGYTFTHYQMDWVRQAPGQGLEWMGTIYPGNGDTSYNQKFKGRVTMTRDTSTSTVYMELSSLRSEDTAVYYCARGDLYALDYWGQGTLVTVSS VL: DIQMTQSPSSLSASVGDRVTITCKASQSVYRDVAWYQQKPGKAPKLLIYSASNRYTGVPSRFSGSGSGTDFTFTISSLQPEDIATYYCQHDYSSPYTFGQGTKLEIK
